Laboratory results published in PMC2568864, “Chemical Dissection of the Link between Streptozotocin, O-GlcNAc, and Pancreatic Cell Death” (Chemistry & Biology, 2008).

Substrate: CC(=O)N[C@H]1[C@H](Oc2ccc3c(C)cc(=O)oc3c2)O[C@H](CO)[C@@H](O)[C@@H]1O
Experiment: purified protein

B1: human O-GlcNAcase (hOGA) (Homo sapiens) (protein)
chain: AAGGARRFLCGVVEGFYGRPWVMEQRKELFRRLQKWELNTYLYAPKDDYKHRMFWREMYSVEEAEQLMTLISAAREYEIEFIYAISPGLDITFSNPKEVSTLKRKLDQVSQFGCRSFALLFDDIDHNMCAADKEVFSSFAHAQVSITNEIYQYLGEPETFLFCPTEYCGTFCYPNVSQSPYLRTVGEKLLPGIEVLWTGPKVVSKEIPVESIEEVSKIIKRAPVIWDNIHANDYDQKRLFLGPYKGRSTELIPRLKGVLTNPNCEFEANYVAIHTLATWYKSNMNGVRKDVVMTDSEDSTVSIQIKLENEGSDEDIETDVLYSPQMALKLALTEWLQEFGVPHQYSSRQVAHSGAKASVVDGTPLVAAPSLNATTVVTTVYQEPIMSQGAALSGEPTTLTKEEEKKQPDEEPMDMVVEKQEETDHKNDNQILSEIVEAKMAEELKPMDTDKESIAESKSPEMSMQEDCISDIAPMQTDEQTNKEQFVPGPNEKPLYTAEPVTLEDLQLLADLFYLPYEHGPKGAQMLREFQWLRANSSVVSVNCKGKDSEKIEEWRSRAAKFEEMCGLVMGMFTRLSNCANRTILYDMYSYVWDIKSIMSMVKSFVQWLGCRSHSSAQFLIGDQEPWAFRGGLAGEFQRLLPIDGANDLFFQPPPLTPTSKVYTIRPYFPKDEASVYKICREMYDDGVGLPFQSQPDLIGDKLVGGLLSLSLDYCFVLEDEDGICGYALGTVDVTPFIKKCKISWIPFMQEKYTKPNGDKELSEAEKIMLSFHEEQEVLPETFLANFPSLIKMDIHKKVTDPSVAKSMMACLLSSLKANGSRGAFCEVRPDDKRILEFYSKLGCFEIAKMEGFPKDVVILGRSL
B1 was tested, and the Km was 80 ± 6 µM.
